# Data published in article PMC8144572, “Molecular model of a sensor of two-component signaling system” (Scientific Reports, 2021).
# B1: full-length NpSRII/NpHtrII complex (complex)
# chain 1: MVGLTTLFWLGAIGMLVGTLAFAWAGRDAGSGERRYYVTLVGISGIAAVAYVVMALGVGWVPVAERTVFAPRYIDWILTTPLIVYFLGLLAGLDSREFGIVITLNTVVMLAGFAGAMVPGIERYALFGMGAVAFLGLVYYLVGPMTESASQRSSGIKSLYVRLRNLTVILWAIYPFIWLLGPPGVALLTPTVDVALIVYLDLVTKVGFGFIALDAAATLRAEHGESLAGVDTDAPAVAD
# chain 2: not shown
# notes: Sensory rhodopsin II (NpSRII), Natronomonas pharaonis, UniProt P42196; no limits stated; as m1; Sensory rhodopsin II transducer (NpHtrII), Natronomonas pharaonis, UniProt P42259; as m2; also called sensory rhodopsin II/transducer complex; full-length phototaxis complex; source: E. coli BL21-AI (SAXS) or BL21(DE3) (SANS), co-expressed, solubilised in DDM, purified (Ni-NTA, SEC); not shown: …
# B2: full-length transducer NpHtrII from Natronomonas pharaonis (natural protein)
# chain: not shown
# notes: Sensory rhodopsin II transducer (NpHtrII), Natronomonas pharaonis, UniProt P42259; gene optimised for expression in E. coli; also called cognate transducer; source: E. coli BL21-AI (SAXS) or BL21(DE3) (SANS), co-expressed with NpSRII, solubilised in DDM, purified (Ni-NTA, SEC); not shown: 6xHis-tag (with ENS-linker), C-terminal, kept
# Columns and labels:
# [1] = biological target: the molecule itself; test: SANS; full-length complex 0.40 mg/ml in D2O buffer, 4.0 M NaCl, 100 mM Na/Na-Pi pD 8.0, 1 mM EDTA, 0.05% DDM; OLIGOMER fit to a mixture of dimers and trimers of dimers (trimer of dimers = six NpSRII/NpHtrII units)
# [2] = biological target: the molecule itself; test: SAXS; detergent-solubilised (DDM) complex, peak fractions after gel filtration; low salt (150 mM NaCl); 0.57 mg/ml full-length and 0.78 mg/ml truncated complex; BM29 (ESRF); curves fitted with atomistic dimer models with a detergent belt (MEMPROT, CRYSOL3)
Protein,stoichiometry N [1],stoichiometry N [2],binding result [1]
B1,6,2,
B2,,,binds
